Results published in patent US20240417437A1, “Linker Polypeptides” (Trutino Biosciences Inc., priority 2021, published 2024).
Where a chain is given by its changes, count along the chain named. Numbers in names are those of the source. Each block holds one binder with its values, some of them ahead of it. Where no end group is shown, it is not given here. The star is where a group is joined. EDANS = O=S(=O)(O)c1cccc2c(NCCN*)cccc12

What was measured:
[1] = target: biotin-labelled collagen IV (Prospec); test: EDANS peptide (20 µM) on biotin-collagen IV-coated streptavidin magnetic beads, fluorescence Ex 340/Em 490, pH 7.5
[2] = target: collagen cross-linked to agarose (Sigma); test: collagen-agarose pulldown, anti-mouse IL-2 immunoblot, band quantitation
[3] = target: collagen cross-linked to agarose (Sigma); test: collagen-agarose pulldown, anti-mouse IL-2 immunoblot, band intensity of the collagen-bound lane (Input (2%) band: 16707)
[4] = target: collagen cross-linked to agarose (Sigma); test: collagen-agarose pulldown, anti-mouse IL-2 immunoblot, band intensity of the collagen-bound lane (Input (2%) band: 15267)
[5] = target: collagen cross-linked to agarose (Sigma); test: pulldown with collagen-agarose, immunoblot quantified with iBright imaging system; reference Construct B
[6] = target: collagen cross-linked to agarose (Sigma); test: pulldown with collagen-agarose, immunoblot quantified with iBright imaging system

RFU [1]: 4560 RFU
Binder: KLWVLPKGPLGVRG-{EDANS} [Peptide 14 (…-*, next generation MMP cleavable linker with collagen IV targeting sequence)]

Bound (% input) [2]: 0.3 % of input
Bound [3]: 2310
B1: Construct B - no TME: mIL2-2x(SG4)-MMPcs1-2x(G4S)-mIL2Ralpha(1-215)-mIgG1Fc (Fc fusion)
chain: APTSSSTSSSTAEAQQQQQQQQQQQQHLEQLLMDLQELLSRMENYRNLKLPRMLTFKFYLPKQATELKDLQCLEDELGPLRHVLDLTQSKSFQLEDAENFISNIRVTVVKLKGSDNTFECQFDDESATVVDFLRRWIAFCQSIISTSPQSGGGGSGGGGGPLGVRGGGGGSGGGGSELCLYDPPEVPNATFKALSYKNGTILNCECKRGFRRLKELVYMRCLGNSWSSNCQCTSNSHDKSRKQVTAQLEHQKEQQTTTDMQKPTQSMHQENLTGHCREPPPWKHEDSKRIYHFVEGQSVHYECIPGYKALQRGPAISICKMKCGKTGWTQPQLTCVDEREHHRFLASEESQGSRNSSPESETSCPITTTDFPQPTETTAMTETFVLTMEYKGCKPCICTVPEVSSVFIFPPKPKDVLTITLTPKVTCVVVDISKDDPEVQFSWFVDDVEVHTAQTQPREEQFNSTFRSVSELPIMHQDWLNGKEFKCRVNSAAFPAPIEKTISKTKGRPKAPQVYTIPPPKEQMAKDKVSLTCMITDFFPEDITVEWQWNGQPAENYKNTQPIMDTDGSYFVYSKLNVQKSNWEAGNTFTCSVLHEGLHNHHTEKSLSHSPGK

Bound (% input) [2]: 0.7 % of input
Bound [4]: 5190
fold of bound fraction over Construct B [5]: 2.5 fold
fraction bound (of input) [6]: < 1 % of input
B2: Construct GG (collagen IV): mIL2-SGG-KLWVLPK(SEQ ID NO: 200)-MMPcs1-2x(G4S)-mIL2Ra(1-215)-muIgG1Fc (Fc fusion)
chain: B1 chain with G153K, G154L, S155W, G156V, G157L, G158P, G159K

RFU [1]: 297 RFU
Binder: GGGSGGGGPLGVRG-{EDANS} [P1]

RFU [1]: 490 RFU
Binder: GGGSGLHERHLNNN-{EDANS} [Peptide 15 (…-*, linker peptide with collagen I targeting sequence)]
